Earlier results on one substance are cited in PMC11172262.

This series addresses Claudin-1 (Homo sapiens) (UniProt O95832).

What is called Kd is the free concentration of one partner at which half of the binding sites on the other are occupied at equilibrium, for simple one-to-one binding. As to Claudin-1 ECL1 (from UniProt O95832), the Kd was 47 nM.
